Assay results reported in paper PMC2899456 (International Journal of Biological Sciences, 2010).

Tests used:
Assay in all cases: co-IP
E2F-1/S403A = E2F-1/S403A (UniProt Q01094 1-437, S403A)
E2F-1/Y411A = E2F-1/Y411A (UniProt Q01094 1-437, Y411A)
E2F-1/S375A = E2F-1/S375A (UniProt Q01094 1-437, S375A)
E2F-1/S332-7A = E2F-1/S332-7A (UniProt Q01094 1-437, S332-7A | S332-7A)

B1: pRB (natural protein, mouse (endogenous in ψ-CRE), UniProt P13405 1-921, looked up)
chain: MPPKAPRRAAAAEPPPPPPPPPREDDPAQDSGPEELPLARLEFEEIEEPEFIALCQKLKVPDHVRERAWLTWEKVSSVDGILEGYIQKKKELWGICIFIAAVDLDEMPFTFTELQKSIETSVYKFFDLLKEIDTSTKVDNAMSRLLKKYNVLCALYSKLERTCELIYLTQPSSALSTEINSMLVLKISWITFLLAKGEVLQMEDDLVISFQLMLCVVDYFIKFSPPALLREPYKTAAIPINGSPRTPRRGQNRSARIAKQLENDTRIIEVLCKEHECNIDEVKNVYFKNFIPFINSLGIVSSNGLPEVESLSKRYEEVYLKNKDLDARLFLDHDKTLQTDPIDSFETERTPRKNNPDEEANVVTPHTPVRTVMNTIQQLMVILNSASDQPSENLISYFNNCTVNPKENILKRVKDVGHIFKEKFANAVGQGCVDIGVQRYKLGVRLYYRVMESMLKSEEERLSIQNFSKLLNDNIFHMSLLACALEVVMATYSRSTLQHLDSGTDLSFPWILNVLNLKAFDFYKVIESFIKVEANLTREMIKHLERCEHRIMESLAWLSDSPLFDLIKQSKDGEGPDNLEPACPLSLPLQGNHTAADMYLSPLRSPKKRTSTTRVNSAANTETQAASAFHTQKPLKSTSLALFYKKVYRLAYLRLNTLCARLLSDHPELEHIIWTLFQHTLQNEYELMRDRHLDQIMMCSMYGICKVKNIDLKFKIIVTAYKDLPHAAQETFKRVLIREEEFDSIIVFYNSVFMQRLKTNILQYASTRPPTLSPIPHIPRSPYKFSSSPLRIPGGNIYISPLKSPYKISEGLPTPTKMTPRSRILVSIGESFGTSEKFQKINQMVCNSDRVLKRSAEGGNPPKPLKKLRFDIEGADEADGSKHLPAESKFQQKLAEMTSTRTRMQKQRMNESKDVSNKEEK
With B1 the “fold change of the pRB/E2F-1 co-IP ratio against E2F-1/wt” value (E2F-1/S403A) was ~3 fold (increase), the “fold change of the pRB/E2F-1 co-IP ratio against E2F-1/wt” value (E2F-1/Y411A) was ~4 fold (decrease) and the “fold change of the pRB/E2F-1 co-IP ratio against E2F-1/wt” value (E2F-1/S375A) was ~2.5 fold (increase). The “fold change of the pRB/E2F-1 co-IP ratio against E2F-1/wt” value (E2F-1/S332-7A) was ~3 fold (increase).
